Experimental data reported in US12624096B2, “Anti-tau antibodies and methods of use thereof” (GTInvent Limited, priority 2020, dated 2026).
“Also recorded” adds a separate entry of the source.

Assays:
hT40 = hT40 (Homo sapiens, UniProt P10636); experiment: Biacore X100 SPR, scAb captured via anti-HuCk, hT40 as analyte; assay type: binding; settings: scAb, Table 23, T441 (hT40)
Procedure: Surface plasmon resonance (SPR) is widely regarded as the gold standard for real time measurement of protein-protein interactions such as antibody binding. All SPR experiments were carried out using a Biacore X100 machine and HBS EP+ running buffer (GE Healthcare). A ‘capture’ method was followed for affinity measurements, where an anti-human constant kappa chain (HuCk) antibody was conjugated to the surface of a CM5 sensor chip using an amine coupling kit and scAb molecules were immobilised via their HuCk domain. Amine coupling is a very common approach for immobilising the ligand to the chip surface. […] The capture antibody was diluted 1/100 in 10 mM Sodium acetate buffer pH 5.0 and passed over the activated chip surface for a period of at least 420 s. Final ligand immobilisation levels over 12,000 RU were deemed to be satisfactory.
(§1) Following immobilisation, the level of each scAb to be captured was identified using the standard SPR equation with a theoretical RMax of 100 RU. Analyte MW refers to the molecular weight of hT40 or dGA/dGAE molecules, while ligand MW refers to the molecular weight of the scAbs tested. RL is the desired capture level and S refers to the stoichiometric ratio:
The scAb to be tested was added only to flow cell 2 so that flow cell 1 could act as a control to subtract any interaction with the analyte and the chip surface. Both single and multi-cycle runs were utilised using wizards developed in the Biacore X100 control software which are both accepted methods of kinetic analysis (Karlsson, R., et al. Analyzing a kinetic titration series using affinity biosensors (2006) Analytical Biochemistry 349:136-47). The multi-cycle protocol was as follows-Three start-up cycles composed of an initial capture, to the desired level, of the scAb to be tested was performed followed by a 30 s injection of glycine buffer pH 2.0 after each cycle to regenerate the chip surface. […] Following three start-up cycles increasing concentrations (0.15625 nM-100 nM) of the target to be tested were added to the chip surface after the desired scAb capture. The target was added for a 120 s association period and 420 s dissociation period followed by another regeneration, 30 s injection of glycine buffer pH 2.0 in between each cycle.
(§2) The single cycle kinetics protocol was similar and utilised the same level of scAb capture. Three start-up cycles were used followed by 5 increasing concentrations of the analyte (6.25 nM-100 nM) for an association period of 120 s followed by a dissociation period of 420 s for each concentration. In single cycle kinetics the regeneration step was performed only after the final analyte concentration was added. Binding responses were analysed in Biacore X100 evaluation software and data fitted to a 1:1 binding model to obtain kinetic and affinity characterisation.

htau40 = htau40 (Homo sapiens, UniProt P10636); experiment: Biacore X100 SPR of anti-tau mAbs on immobilised htau40; assay type: binding
Procedure: For anti-tau mAb SPR measurements, htau40 was conjugated to the surface of a CM5 sensor chip using amine coupling as explained previously. Briefly, 2 μg/mL htau40 in 10 mM Sodium acetate buffer (pH 4.0) was passed over the activated chip surface (EDC/NHS) in flow cell 2 for a period for 45 s followed by blocking with 1 M ethanolamine-HCl PH 8.5. Flow cell 1 was set up as reference control and blocked simultaneously. Final immobilisation level of htau40 (Rmax) was approximately 250 RU. Following a minimum of three start-up cycles, increasing concentrations (0.78 nM-25 nM) of the mAb in HBS-EP+ buffer was added at a rate of 30 μL/min to the chip. The mAb was added for a 120 s association period and 600 s dissociation period followed by a regeneration cycle of 30 s injection of glycine buffer pH 1.5 in between each cycle. Binding responses were analysed in Biacore X100 evaluation software and data fitted to a 1:1 binding model to obtain kinetic and affinity characterisation.
For anti-tau mAb SPR measurements (Biacore X100™) and epitope mapping, the same methodologies described above (see Example 16) were followed. Kinetic rates and equilibrium binding constants of additional anti-tau mAbs and the regions recognised on hT40 are given in the Table 25 below

human tau and mouse tau = experiment: Western blot of WT, L66+/+ and L1+/+ mouse brain homogenates; assay type: binding; settings: 20 μg protein, 5-month-old mice
Procedure: Protein equivalent to 20 μg from each brain extract was separated using 4-20% bis-tris gels and run in 1×MES buffer.
A band is detected in each sample (WT, L66^+/+ and L1^+/+) with an apparent molecular weight of approximately 55 kDa. This band most likely corresponds to endogenous mouse tau which is of a similar size. In the L66^+/+ samples, a second band running at approximately 68 kDa is also detected. The presence of numerous other bands indicates proteolytic truncation of tau within brain homogenates.

[1] = system: hT40, dGA, dGAE and truncated tau fragments/peptides; experiment: Binding ELISA for epitope mapping with truncated tau proteins and biotinylated 13mer peptides; set-up: species or system human; settings: direct binding ELISA
Procedure: A series of binding ELISA was performed using various truncated versions of the tau protein and 13mer peptide libraries spanning the entire hT40 molecule for mapping the epitopes of anti-tau scAbs (Full list of protein antigens used is given in Table 14). In general, ELISA plates were coated with 1 μg/ml hT40 or dGA or dGAE or other truncated versions of the protein and in the case of biotinylated peptides, plates were coated with 5 μg/ml Streptavidin followed by 1 μg/ml biotinylated peptide. The plates were blocked with 2% MPBS and scAb samples added at desired starting concentrations and double diluted across the plate. Binding was detected using anti-Human C Kappa HRP conjugated secondary antibody and the resulting immunoreaction was developed and absorbance values measured as described above.
Similarly, dGA binding ‘NS’, ‘S’ and ‘M’ group scAbs were subjected to further antigen binding ELISA using shorter tau proteins and biotinylated 13mer peptides as shown below (FIGS. 10A-F) and (FIGS. 11A-R).
For anti-tau mAb SPR measurements (Biacore X100™) and epitope mapping, the same methodologies described above (see Example 16) were followed.

dGA = dGA (Homo sapiens, UniProt P10636); experiment: Biacore X100 SPR, scAb captured via anti-HuCk, dGA as analyte; assay type: binding; settings: dissociation rate
Procedure: Surface plasmon resonance (SPR) is widely regarded as the gold standard for real time measurement of protein-protein interactions such as antibody binding. All SPR experiments were carried out using a Biacore X100 machine and HBS EP+ running buffer (GE Healthcare). A ‘capture’ method was followed for affinity measurements, where an anti-human constant kappa chain (HuCk) antibody was conjugated to the surface of a CM5 sensor chip using an amine coupling kit and scAb molecules were immobilised via their HuCk domain. Amine coupling is a very common approach for immobilising the ligand to the chip surface. The chip surface has a dextran matrix derivatised with carboxyl groups, which after activation with N-hydroxysuccinimide (NHS) and 1-ethyl-3-(3-dimethylaminopropyl) carbodiimide (EDC), form reactive succinimide esters which allows the covalent capturing of the ligand via any available primary amine groups (e.g. Lysine) on the ligand (in this case anti-HuCk antibody). The capture antibody was diluted 1/100 in 10 mM Sodium acetate buffer pH 5.0 and passed over the activated chip surface for a period of at least 420 s. Final ligand immobilisation levels over 12,000 RU were deemed to be satisfactory.
as §1
The scAb to be tested was added only to flow cell 2 so that flow cell 1 could act as a control to subtract any interaction with the analyte and the chip surface. Both single and multi-cycle runs were utilised using wizards developed in the Biacore X100 control software which are both accepted methods of kinetic analysis (Karlsson, R., et al. Analyzing a kinetic titration series using affinity biosensors (2006) Analytical Biochemistry 349:136-47). The multi-cycle protocol was as follows-Three start-up cycles composed of an initial capture, to the desired level, of the scAb to be tested was performed followed by a 30 s injection of glycine buffer pH 2.0 after each cycle to regenerate the chip surface. The regeneration step removed any captured scAb whilst leaving the capture antibody intact and able to repeat the capture for the next cycle. Following three start-up cycles increasing concentrations (0.15625 nM-100 nM) of the target to be tested were added to the chip surface after the desired scAb capture. The target was added for a 120 s association period and 420 s dissociation period followed by another regeneration, 30 s injection of glycine buffer pH 2.0 in between each cycle.
as §2

[2] = system: alanine substituted 13mer tau peptides; experiment: Alanine scanning mutagenesis (ASM) peptide ELISA; assay type: binding, human; settings: numbering according to SEQ ID NO: 1; description text 'may be'
Procedure: To further elucidate epitopes of the scAb panel, and identify the critical amino acids needed for binding, alanine scanning mutagenesis of the parent 13 aa peptides for scAbs CE2, S1D12, CA4 and S1G2 was performed. […] Briefly, 5 μg/ml streptavidin (Thermo Fisher) was adsorbed to Nunc 96-well MaxiSorp plates and following incubation at 37° C., for 1 h, the plates were washed as normal and blocked with 2% MPBS. N-terminally biotinylated peptides (Prolmmune Ltd) were added to the plates and incubated for 1 h at 37° C. Subsequently, test scAbs at starting concentrations of 100-500 nM was added and double diluted across the plate for each peptide and incubated for 1 h at 37° C. Rest of the ELISA was conducted as described above and the plates were read at absorbance 450 nm. Immunoreactivity of the scAb of interest was quantified as the % of scAb was bound for each peptide at a chosen concentration (FIG. 15-20).

[3] = mAb, Table 27, immobilised hT40
[4] = newly converted mAbs, Table 25 (Example 28), hT40

htau40, sequence (P10636 1-441 isoform P10636-8): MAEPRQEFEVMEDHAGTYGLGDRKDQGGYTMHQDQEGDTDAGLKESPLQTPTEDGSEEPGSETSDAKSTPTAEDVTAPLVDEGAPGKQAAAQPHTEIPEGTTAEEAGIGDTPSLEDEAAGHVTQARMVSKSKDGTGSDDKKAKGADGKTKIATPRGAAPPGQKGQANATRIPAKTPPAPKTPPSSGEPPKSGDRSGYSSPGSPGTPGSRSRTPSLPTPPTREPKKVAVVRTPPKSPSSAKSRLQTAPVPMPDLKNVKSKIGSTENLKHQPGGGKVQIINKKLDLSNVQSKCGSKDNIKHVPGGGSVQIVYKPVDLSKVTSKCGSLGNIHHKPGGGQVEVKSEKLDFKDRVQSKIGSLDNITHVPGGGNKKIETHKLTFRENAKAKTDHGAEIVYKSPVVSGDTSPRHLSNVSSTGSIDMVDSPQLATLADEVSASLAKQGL
hT40, sequence (P10636 1-441 isoform P10636-8): as above
dGA, sequence (P10636 614-707): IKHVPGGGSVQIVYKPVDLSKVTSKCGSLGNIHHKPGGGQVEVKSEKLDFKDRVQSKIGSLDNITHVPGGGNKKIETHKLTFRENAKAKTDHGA

Molecule | ka (hT40) [M⁻¹ s⁻¹] | kd (hT40) [s⁻¹] | ka (htau40; [3]) [M⁻¹ s⁻¹] | kd (htau40; [3]) [s⁻¹] | bands detected in western blot of WT, L66+/+ and L1+/+ brain homogenates (human tau and mouse tau) | ka (htau40; [4]) [M⁻¹ s⁻¹] | kd (htau40; [4]) [s⁻¹] | cross-reactivity of 'E' group scAbs using hT40, dGA and dGAE antigens [1] | Kd (dGA) [s⁻¹] | Critical residues of the epitope [2] | Kd (htau40; mAb, Table 27, read-out: kD (M) for hT40 binding) [M]
CC7: anti-tau clone, SEQ ID NO: 365 (protein, CC7 amino acid sequence) scFv: QVQLQESGPSLVKPSQTLSLTCTVSGFSLTSNAVIWVRQAPGKAPEWVALIDVDGDAAYDPALKSRLSITRDTSKSQVSLSLRSVTTEDTAVYYCARDYGSWGYVSDIDYWGPGLLVTVSSEGKSSGASGESKVDDRVVRTQPSSVSGSLGQRVSITCSGSYITGSSVGWFQQVPGSGLKTVIYDNNDRPSGVPDRFSGSKSGDTATLTISSLQAEDEADYYCASYDTSNIGLFGSGTRLTVLG | 295700 | 0.0003659 | 4.576e+06 | 0.03164 | show specificity for human tau | – | – | – | – | – | –
CE2: anti-tau clone referred to as CE2 or E1B8, SEQ ID NO: 366 (protein, CE2/E1B8 amino acid sequence) scFv: QVQLQESGPSLVKPSQTLSLTCTVSGFSLTNYPVGWVRQAPGKALEWIGNIENDGSANYASALKSRLSITRDTSKNQVSLSLSSATTEDTAVYYCGREFGGSDGYTYFVDIDYWGPGLLVTVSSEGKSSGASGESKVDDQAVLTQPSSVSKSLGQSVSITCSGSSSNVGYGNYVSWFQQVPGSAPKILIYGATSRASGVPDRFSGSRSGNTATLTITSLQAEDEADYYCASYDGSSSGVFGSGTRLTVLG | 213700 | 0.001077 | 457900 | 0.005218 | – | 323800 | 0.001367 | cross-reacts with dGA; also recorded: specific binding to the tau peptide representing amino acids from 313-336 | 0.00242 | 323 (G), 324 (S), 325 (L), 326 (G), 327 (N) and/or 328 (I) | –
NS2A1: anti-tau clone, SEQ ID NO: 220 (protein, NS2A1 amino acid sequence) scFv: QVQLQESGPSLVKPSQTLSLTCTVSGFSLSTNSVGWVRQAPGKAPEWVAGIDTDGEEGFNPVLKSRLSITRDTSKSQVSLSLSNVTSEDTAVYYCGRSYRTDGLAYGYVQAIDYWGPGLLVTISSEGKSSGASGESKVDDQSVLTQPSSVSGSPGQTVSITCSGSYIGSSGVGWFQQLPGSGLRTIIVASDGRPSGVPDGFSMSKSGNTATLTISSLQAEDEADYFCGSSDRTQYTGLFGSGTRLTVLG | 252100 | 0.0007393 | 893700 | 0.002621 | – | – | – | – | 0.00102 | – | 1e-08
E2B7: anti-tau clone, SEQ ID NO: 254 (protein, E2B7 amino acid sequence) scFv: QVQLQESGPSLVKPSQTLSLTCTVSGFSLTSWGVAWVRQAPGKALEWLGTMRSGGGTEYNPALKSRLSITRDTSKSQVSLSLSSVTTEDMAMYYCARGYLSGIHYAWGRGLLVSVSSEGKSSGASGESKVDDQAVLTQLSSVSGSLGQRVSITCSGSSSNVGDGDYVGWFQQLPGSAPKLLIYSARNRASGVPDRFSGSRSGNTATLTITSLQAEDEADYYCASIDTSRSHIFGSGTRLTVLG | – | – | – | – | – | – | – | specific dGAE binding | – | – | –
